Assay: label from the status in PepcDB records

Row | Sequence | protein production
1 | PIKQSFLLKRSGNSLNKEWKKKYVTLSSNGFLLYHPSINDYIHSTHGKEMDLLRTTVKVPGKRPPRAISAFGPSASINGLVKDMSTVQMGEGLEATTPMPSPSPSPSSLQPPPDQTSKHLL | failed
2 | MTNLDEFLEELSSIESHSQKIVKIDEHLKKLDEETKEDEDEDAAKIIQDRSTAREAEIALLMDLRQNFLPPPSMSSSSLQPPSSSTLAPSSSSSLQPPAPLIDFFRSSVSYSHQPPSSSTLATSSSPSLQPPSMSSSSLQPPASLREFFTSSVSYSHQPSSSSTLATSSFFPSSMPYSVRPPDSSDRPSLREFFPSSPSSSIQPPESSSSKRARLSNIFPSPLSSSPSPFVNPFLRPQAQEPTIPNFINPIPQISPGLPALFPNPNPNPNPNPIPNPIRNPDLVWTNRLQLVFDDAVVRLGGLFSATPKAINELISEEGLTGDQIRSHLQVLRDRQKAIADKLALE | failed
3 | MSGLLPLLDFAGYVALLLWGVHMVQTGVQRAFGAALSIALGRALGTRLRAFASGLGITAALQSSTATGLMITGFAAGGVVALVPALAAMLGANVGTTLIVQLLSFDLTSLAPILILAGVWMFRRAAPGRTRDLGRVFIGLGLLLLSLHQLVQLFQPFETAPLLGVLLDALASQPVAAVLLAAALTWAAHSSVAVVVLVMSLASHGMVNPALAFALVLGANLGTAINPMIEGVTGDDPAARRLPLGNLLTRVAGVLAGIILLPWLQPWLSGLAGDPAHAVANFHTLFNVVIALVFLPILTPYAALLTRWLPKRADPNDPARPQYLDEWAHDVPAVALGNAAREALRMADMLQTLLLYARAGFKRDNRHRMVQARQLDSALDKLETAITTYLATLDQENMTREDHQRLDTILAFCSNIGHAGDIAYHGLLNHIGRLRKQGLLLSADQRASLDATLGELIANQRQAAALFVTDDLRQARALAGEKARFRALEAEAAETQLQQIKSGKVDAAEVGALYLDILRDLKGINSHVVGASAYPLLARHGELLPSRLRDAGN | failed
4 | MRERFDVVIAGAGPAGAQCARDLAERNYEVLVLESEPEDGFPRQSNKSTAGTFMSAMTGFAIPDDVVMNYTDNVVLESPNDHYVRNQTGAVLEFAEFKQWLVSEGRDKGATYRFDSRVSAPIMENGEIVGVRYDGDEEVYADIVIDATGPAAPLAKELDVCNLQRNHQAIGVEYEFEGVEVDHDDYADLRDAMMLRLDHDLAPGGYSWIFHTGEDTAKVGLCYIQNGSHQKYAKDGMGIDDYLEYWLDSDPRFDDAERIEGTQAHRGSAHIQPPDSMSTDNFMAIGDTVPTVDPLWGEGIHKGMKSARAAAATADSALKPDEPDTSAENLSVYDQLWHSEVAPKHNARLMMTELLYLAPNERYDQLMDDLRSTGQDTLRQINGGDRRAIAKLTHLSDMPILVEYARRRLDILEHHHHHH | failed
5 | MIDLKKIKRFAQEIHDKNNDGHGFDHIERVVALARKILLTEPSANQELVLATYLHDTYDEKLTDDVPKQKVKVAQFLNELKIDKKLIDELFMIIDNMSFSSNLIERKTLSLNGQIVQDADRLDAMGAWGIVRTLEYGWAKNRVFYDPNLPPLDYNSKEDYHSQKNNSTLNHFYEKLFLLKDLLNTTEGKRLGEKRDKIMHLFVSQIEEEYKETHLLEHHHHHH | failed
6 | MVSIDTLIFQALNSSKFHPLYSPSINSINLQDDWAEKEGKEELSSILLLHRKASPPPPISALPNRNHKLQPLNLLFIDFPGQSFQQRERFRQFTASVRVYYVNDRKLNVQEGALIFFVRGVRYSLPLRELCDIYGFDNDLIGVALPGQFKDAQIFWSRFSNGIYDSKDAVHSEIRHLVLRYLVRLISSTLFCKMEPGKMRLSELLVLYHVVHDFFPDSLRFEEVDRDVNVGAVFAHHLVSLKTKPFTGRGKKLERVGSLLTPIFEHFRISFEGEELPCTALTKITSEHEELSFCPDPSLMHAAPRTRRHRGLASRSAPTQTEDEFIDPAEGLRVGSSSSALPYQLPSPPPIPMEPHVFQQYVVDSFKSVWNAIATLSR | failed
7 | MCEHHHAAKHILCSQCDMLVALPRLEHGQKAACPRCGTTLTVAWDAPRQRPTAYALAALFMLLLSNLFPFVNMNVAGVTSEITLLEIPGVLFSEDYASLGTFFLLFVQLVPAFCLITILLLVNRAELPVRLKEQLARVLFQLKTWGMAEIFLAGVLVSFVKLMAYGSIGVGSSFLPWCLFCVLQLRAFQCVDRRWLWDDIAPMPELRQPLKPGVTGIRQGLRSCSCCTAILPADEPVCPRCSTKGYVRRRNSLQWTLALLVTSIMLYLPANILPIMVTDLLGSKMPSTILAGVILLWSEGSYPVAAVIFLASIMVPTLKMIAIAWLCWDAKGHGKRDSERMHLIYEVVEFVGRWSMIDVFVIAVLSALVRMGGLMSIYPAMGALMFALVVIMTMFSAMTFDPRLSWDRQPESEHEES | failed
8 | MATCIWLRSCGARRLGSTFPGCRLRPRAGGLVPASGPAPGPAQLRCYAGRLAGLSAALLRTDSFVGGRWLPAAATFPVQDPASGAALGMVADCGVREARAAVRAAYEAFCRWREVSAKERSSLLRKWYNLMIQNKDDLARIITAESGKPLKEAHGEILYSAFFLEWFSEEARRVYGDIIHTPAKDRRALVLKQPIGVAAVITPWNFPSAMITRKVGAALAAGCTVVVKPAEDTPFSALALAELASQAGIPSGVYNVIPCSRKNAKEVGEAICTDPLVSKISFTGSTTTGKILLHHAANSVKRVSMELGGLAPFIVFDSANVDQAVAGAMASKFRNTGQTCVCSNQFLVQRGIHDAFVKAFAEAMKKNLRVGNGFEEGTTQGPLINEKAVEKVEKQVNDAVSKGATVVTGGKRHQLGKNFFEPTLLCNVTQDMLCTHEETFGPLAPVIKFDTEEEAIAIANAADVGLAGYFYSQDPAQIWRVAEQLEVGMVGVNEGLISSVECPFGGVKQSGLGREGSKYGIDEYLELKYVCYGGL | failed
9 | MQHLDLQVVRKALKWSVGGERVWFCTVLTTYGSAPRAPGSLLAVNASGEWIGSLSGGCVEDDFLERVAAGGFPDPAVIVRYGEGDDPNSNIRLPCGGILDVLVENLAPDCDVQAHLRELESALLGQRRLLREVELGSGARSLRDDSSHGPRAERDGECVRLRVGAAQRLLLAGYSSVAHACAEFGKGLGFEVILCDPREEALRGVVLEGIEIRRELPSLFIADGGCHADTAVVALTHDPKIDDLAMLEAVRTEAFYIGVMGSRATSEKRFERLRRIGGLGDAELARIHAPIGLNLGSKTPAEIALAVLADILRIRNGIPRERL | failed
10 | APLPVIFIPGIMGTNLRNKADKSEVWRPPNGLWPMDDLFASIGALWTWAWRGPKARQELLKAEQVEVDDQGTIDVGQSGLSEEAARLRGWGKVMRSAYNPVMGLMERRLDNIVSRRELQAWWNDEALSPPGDQGEEQGKVGPIDEEELLRASRYQFDVWCAGYNWLQSNRQSALDVRDYIENTVLPFYQKECGLDPEQMRRMK | failed
11 | EEWLDILGNGLLRKKTLVPGPPGSSRPVKGQVVTVHLQTSLENGTRVQEEPELVFTLGDCDVIQALDLSVPLMDVGETAMVTADSKYCYGPQGSRSPYIPPHAALCLEVTLKTAVDRPDLEM | not failed
12 | MDKENEYNKMCEEHDKYFKNLFKNLNRKIEYTFACEKENTYDDSVSNSIYTNSNQNEDNISYNNNNINNDNISSSSISKNSNNTKNSSFNETKNINDDKIKYDDKNVYDDKNINDDKNIYDDKYLYDDKNINHDKYSYDDKNINDDKYLYDDKNLYDGNNIYEENNYNNNNTNGHQMKSPTYHMKNSVQNITIYTSINKNDISKDINKINEKNTANINTSHIYQIKNDENNNNIYNNVEHIKSLCESYKNYDNDHLLYYKKHSHSKEDIHNYPIFNNAKTSQLENSNNDFLNIMNNNIKNNISEMESSKKKKKSNLLITNEIEDKLSNIQINHTNKINENNTIQYGQKTKGNKIGNHKTNIKEKLNDLIENIHLKNNKIENMNNMDDMNDMDNMNNMDDMDNTDNMNNRGNMNNRDNINNRDNMNNSNNMDNKDNMNNKDNINNKDNMNNKDNINNKDNINNLNCIDNMKHDKLQKDHLETPPIHKSPITRKSKNNIMDILNNKMNITSLENVDTSTPKYVKYNTIHREIMNPRQHFFNQNKSSIDHIICL | failed
13 | LAALCPVAVPSGVQIYTIDGPLFFGAAATFERTLAGLHDQAEAVIFRLGRVPFADATAMHALDDVVRHFRQRHIEVRVCEANPRVAHKLREFGLLARIGQQDASISVLDALAELAPQPGTQVQAEAS | failed
14 | MTIYAAGLPAFLSYFSIGLVCFAIFSTIYTRLTPHEEVELIKAGNISAVVAFLGALIGFSLPLASAAAHSVSLPDYVIWAAIGLLVQVLAFYIAKLTMTDLHLKITEGNVAAGLWSGGIAVVIGTLNAACMAY | failed
15 | MSTALATLAGKLAERVGMDSVDPQELITTLRQTAFKGDASDAQFIALLIVANQYGLNPWTKEIYAFPDKQNGIVPVVGVDGWSRIINENQQFDGMDFEQDNESCTCRIYRKDRNHPICVTEWMDECRREPFKTREGREITGPWQSHPKRMLRHKAMIQCARLAFGFAGIYDKDEAERIVENTAYTAERQPERDITPVNDETMQEINTLLIALDKTWDDDLLPLCSQIFRRDIRASSELTQAEAVKALGFLKQKATEQKVAA | failed
16 | GAPLQRMLDEIAGHAACPVVVTNLAHRVLATAGERSAVDDVLRDWERIARQAGGSEGAGWVRAELGGRGERWGRIVLCGYRGDAATGRLLADRAAEALVLHRMLGGSAHTWEEQSAQGLLTDLVSGVVPARQLLPRARAAGLPVNRRTFVPLVVRDGEPPVLDRVLRMLGLPGLVAELADGATAVLLSLARDQDAEALSAHFATRLRTESGASGTVVAAADPRTAWDDVPAGLREAQHVADAVAENSAVLDLPAVVRLRDVHLRGLIRLLRDDPYVQSFAERELNGLLCGRDAESDLLPVLRTYLATGRNKSRTAQLHHVSRPALYRRLEAIQARLGVDLDDFEQAASVHIALLAHDAQQ | failed
17 | MSQNWNADYATLAKRGFMLGAGLFLLGIAGEVAGSAVLGTLPAWGDTLLVDMEMLGILVGLLSPLVFGVVMPLTE | failed
18 | MRTIAFALALLATPVAAELEAARDLMDAGRFDEAYAALWPAARSGNAEAEELIGVIYAMGLGRPRDDQRAFEWYLRAAMKGHPGAQSGVGWYYEVGRGLPAPDLMRAYMWYTLSAIGGDPDAAISLEEVAKKMTAEEINKAHVLVADYKVWMYPFR | failed
19 | MNENDKEYQASLKSLETENIIDRKFYRPIGFYFAKLLSRTRVTPNMVTILSIFVGLGGGLCFVHTPYDLRWAVAGILCMVVANIMDCIDGQLARLTGIKSEIGRILDGIAGDIWFACIYICFIIRLTAEYPDALGSMTTGILIAVGLLSGISHLVQAAVTDYYKTLHLFFISPEKGKEFERSTSIRRRVKAMPHGVNRLFSSLYYYYTLIQERATPRLQRLLDQLEADYPQNTIPETLRQHLRKDSRRIMNIVDFLTFNGRTIPLFLIVLSGHIWLYFVFEILILNTVLVLGIRRHEAMCRHHLKERR | failed
20 | MARSQQFPSSTAVSVSPPAASSIAKPPQPVLDGLWAFAPNRDTLGGTAYFLKLPQGNWLIDAPAWHGETQAFVEEQGGLQGVFLTHRGAFGKAIAIQQHFDCDLVVQEQEAYLLPGANVTTFEQEQAIAPALTAIWTCGHSPGSACLYWEGHGGVLFTGRHLLPTRAGGVAPLRTAKTFHWPRQIRNTQMLCDRFSSETLAWICPGASSGFLRGRKAIASAYMQLQQLDWSALSEAQPLL | failed
21 | MGSEVVNPTKPRFDLSMSKRTRKPWSSLINDMHHHAICTQSSQPKPDKEQEQIEDKEIDRKSLNNLMRCDEKLNGEADVNNKSSLDQHFEDGEGIKPTMQLVVKKEKQGGLKFKGLSQHIFRLIEFLLSYRTDY | failed
22 | MRHLITSLQNHNGQLKGEVQRYKRKYKDTSTDNLKLRQELADALATLEGNKLQAATGAAGEEIKQENSTGVKEENSNNVSASGQTNQTNSGNDTNVAIKEENHISAEDEADDEASGKDVKDGIKQEKLSSGDAAAAEKKDSPGPGNSTSSATNSVPVKNEKDSKDGVKGKDVKAVESETV | failed

— a protein production outcome set (Wang et al. 2014)
